Experimental data as given in paper PMC4141206 (FEBS Open Bio, 2014).

Biological target: ANAPC2CW fragment (mouse ANAPC2 cullin-Winged-helix subdomain; residues 512–837) (mouse, UniProt Q8BZQ7 512-837)
Assay: NMR titration

ANAPC2CW fragment (mouse ANAPC2 cullin-Winged-helix subdomain; residues 512–837), sequence (Q8BZQ7 512-837): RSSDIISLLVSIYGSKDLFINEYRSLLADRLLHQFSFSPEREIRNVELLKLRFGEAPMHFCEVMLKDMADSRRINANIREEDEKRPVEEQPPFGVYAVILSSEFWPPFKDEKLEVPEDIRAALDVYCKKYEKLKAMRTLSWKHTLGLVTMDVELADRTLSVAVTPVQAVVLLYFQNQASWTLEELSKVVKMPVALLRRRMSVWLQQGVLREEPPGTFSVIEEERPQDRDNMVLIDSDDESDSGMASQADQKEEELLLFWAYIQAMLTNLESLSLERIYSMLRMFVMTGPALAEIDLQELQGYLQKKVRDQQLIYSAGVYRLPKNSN

B1: Emi2 ZBR–RL fragment (mouse Emi2; residues 547–641), 13C- and 15N-labeled (domain or fragment, UniProt Q8CDI2 546-640, looked up)
chain: LTHLRSKQEQYVKVARTLFTDEALKPCPRCQSPAKYQPHKKRGLCSRLACGFDFCVLCLCAYHGSEDCRRGSAKARGSKDVLPGSAQSKRNLKRL
modifications: [15N, 13C]-labeled
B1: binds.
